Measured values taken from the nanobody polyreactivity screen of Harvey et al. (2022).

Assay: yeast display, Sf9 membrane polyspecificity reagent, FACS + sequencing; frameworks hold sequencing errors
Summary of the method: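 Nanobodies from a synthetic yeast display library (Saccharomyces cerevisiae BJ5465), induced 36–48 hours with galactose, were stained 1 hour at 4 °C with 10% biotinylated, detergent-solubilized Sf9 membrane reagent, enriched on streptavidin microbeads, then FACS-sorted. Anti-HA (expression) and streptavidin (reagent binding) fluorescence set low and high (top ~1%) gates. Polyreactivity labels come from the gate of origin. Genes were colony-PCR amplified, MiSeq 2 × 250 sequenced and filtered by CDR length.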

Sequence	polyreactivity (PSR sort gate)
KVQLVESGGGLVQAGGSLRLSCAASGSIFDLYTMGWYRQAPGKERELVATISSGGSTNYADSVKGRFTISRDNAKNTVNLQMNSLKPEDTAVYYCAAGSTHYDIHFDYWGQGTQVTVSS	low polyreactivity
QVQLVESGGGLVQAGGSLRLSCAASGSTFLGNVMGWYRQAPGKERELVAAISRGGSRTYYADSVKGRFTISRDNAKNTVYLQMNSLKPEDTAVYYCAAEPYAASRSGEFNYWGQGTQVTVSS	low polyreactivity
QVQLVESGGGLVQAGGSLRLSCAASGGTFYTNVMGWYREAPGKERELVAAITRSGGSTHYADSVKGRFTISRDNAKNTVYLQMNSLKPEDTAVYYCAVGSPYYDGMDYWGQGTQVTVSS	low polyreactivity
QVQLVESGGGLVQAGGSLRLSCAASGYIFFGNAMGWYRQAPGKERELVAAIRWRGTSTYYADSVKGRFTISRDNAKNTVYLQMNSLKPEDTAVYYCAADVVRYNFYGTFLYDYDYWGQGTQVTVSS	low polyreactivity
QVQLVESGGGLVQAGGSLRLSCAASGSIFVPYAMGWYRQAPGKERELVAAISSRGGRTYYADSVKGRFTISRDNPKNTVYLQMNSLKPEDTAVYYCNKTAGSHIPRLEYWGQGTQVTVSS	low polyreactivity
QVQLVESGGGLLQAGGSLRLSCSASGRIFPSYAMGWYRQAPGKERELVAAISSSGGRTYYADSVKGRFTISRDNAKNTVYLQLNSLKPEDTAVYYCAARWVQYGVRYDFWGQGTQVTVSS	high polyreactivity
QVQLVESGGGLVQAGGSLRLSCAASGRTFYVNAMGWYRQAPGKERELVAAINTIGGRTYYADSVKGRFTISRDNAKNTVYLQMNSLKTEDTAVYYCAARQVSRWGYDYWGQGTQVTVSS	high polyreactivity
QVQLVESGGGLVQAGGSLRLSCAASGRTFRIYAMGWYLQAPGKERELVAPISGRGGNTYYADSVKGRFTISRDNAKNTVYLHMNSLKPEDTAVYYCAADDATAYRVDGFKYDYWGQGTLVTVSS	high polyreactivity
QVQLVESGGGLVQAGGSLRLSCAASGSIFGSYAMGWYRQAPGTERELVAAIDWSGVGTYYADSVKGRFTISRDNANNTVYLQMNSLKPEDTAVYYCAAGVLRRDTELYYWGQGTQVTVSS	low polyreactivity
QGQLVESGGGLVQAGGSLRLSCAASGITFYYYAMGWYRQAPGKERELVAAINWSGTSTYYADSVKGRFTISRDNAKNTVYLQMNSLKPEDTAVYYCNAERGRSFWWAYDYWGQGTQVTVSS	low polyreactivity
QVQLVESGGGLVQAGGSLRLSCAASGFTFPWYAMGWYRQAPGKERELVAVISSSGGSTYYADSVKGRFTISRDNAKNTVYLQMNSLKPEDTAVYYCNKDYYKRAYLFGYWGQGTQVTVSS	high polyreactivity
QVQLVETGGGLVQAGGSLRLSCAASGLTFYVYAMGWYRQAPGKERELVAAISSGGRTYYADSVKGRFTISRDNAKNTVYLQMNSLKPEDTAVYYCAAVRHRNYGYWGQGTQVTVSS	high polyreactivity
QVQLVESGGGLVQAGGSLRLSCAASGFTFWRYAMGWYRQAPGKERELVAAISRTGGRTYYADSVKGRFTISRDNAKNTVYLQMNSLKPEDTAVYYCAAVKYETYRYNYDYWGQGTQVTVSS	high polyreactivity
QVQLVESGGGLVQAGGSLRLSCAASGRTFYYNAMGWYRQAPGKERELVAAISWSGGSTYYADSVKGRFTISRDNAKNTVYLQMNSLKPEDTAVYYCAAGAYSYRKYRSYDYWGQGTQVTVSS	high polyreactivity
QVQLVESGGGLVQAGGSLRLSCAASGFTIDSYAMGWYRQAPGTERELVAAISYRGGTTYYADSVKGRFTISRDNAKNTVYLQMNSLKPEDTAVYYCNRMWKYGFNYWGQGTQVTVSA	high polyreactivity
QVQLVESGGGLVQAGGSLRLSCAASGNTFVRYDMGWYRQAPGKEREFVAAITASGGSTYADSVKGRFTISRDNAKNTVYLQMNSLKPEDTAVYYCNAGNSSTGVDRYDYWGQGTQVTVSS	low polyreactivity
QVQLVESGGGLVQAGGSLRLSCAASGLTFLNNAMGWYRQAPGKERELVAAISDGGSTNYADSVKGRFTISRDNAKNTVYLQMNSLKPEDTAVYYCAARVRGDYGHKYYQFDYWGQGTQVTVSS	low polyreactivity
QVQLVESGGGLVQAGGSLRLSCAASGFTFGSYVMGWYRQAPGKERELVADISIRGGSTYYADSVKGRFTISRDNSKNTVYLQMNSLKPEDTAVYYCAASYFPFNSGRKVGYWGQGTQVTVSS	low polyreactivity
QVQLVESGGGLVQAGGSLRLSCAASGFIFYVNDMGWYRQAPGKERELVADISGGTSTNYADSVKGRFTMSRDNAKNTVYLQMNSLNPEDTAVYYCNKYVAYDYWGQGTQVTVSS	low polyreactivity
QVQLVESGGGLVQAGGSLRLSCAASGSIFQAYAMGWYRQAPGKERELVASISQSGDSTYYADSVKGRFTISRDNAKNTVYLQMNSLNPVDTAVYYCAAVQYGHRRGRVSVRRRLDYWGQGTQVTVSS	low polyreactivity
QVQLVESGGGLVQAGGSLRLSCAASGSIFRINAMGWYRQAPGKERELVAAISTSGGTTYYADSVKGRFTISRDNAKNTVYLQMNSLKPEDTAVYYCSARRVTSPFGSDSWGQGTQVTVSS	low polyreactivity
QVQLVESGGGLVQAGGSLRLSCAASGRIFPTNAMGWSRQAPGKERELVASITRSGSTYYADSVKGRFTISRDHAKNTVYLQMNSLKPEDTAVYYCAGYAYIFLDWGGYPYYLYEYDYWGQGTQVTVSS	low polyreactivity
